Measured values as given in the supplement of paper PMC10724198.
± gives the standard deviation of the averaged measurements.

How the values were obtained:
Saccharomyces cerevisiae [1] = test: protein stability index of tFT-peptide fusion (C-terminal peptide) (PSI (0-1 scale)); higher = more stable (slower turnover); settings: genetic background: wild type; temperature: 30 C
Saccharomyces cerevisiae [2] = test: as above
Protocol: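 MPS profiling in S. cerevisiae of the tFT-X12 degron library: putative degron peptides plus stable controls, 12 aa, fused to the C-terminus of a sfGFP-mCherry timer. Cells are FACS-sorted into 8 mCherry/sfGFP bins and deep-sequenced. PSI runs from 0 (unstable) to 1 (stable). Backgrounds are wild type, das1Δ and doa10Δ at 30 °C, and wild type, das1Δ, cdc34-1 and cdc53-1 at 37 °C; 2-3 technical replicates each.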

[3] = genetic background: cdc34-1, temperature: 37 C
[4] = genetic background: cdc53-1, temperature: 37 C
[5] = genetic background: das1 deletion, temperature: 30 C
[6] = genetic background: das1 deletion, temperature: 37 C
[7] = genetic background: doa10 deletion, temperature: 30 C
[8] = genetic background: wild type, temperature: 30 C
[9] = genetic background: wild type, temperature: 37 C
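Also: PSI is a weighted mean of sequencing reads over stability bins, variants kept only with over 10 reads, mCherry proximal and sfGFP distal, peptide attached via GGGS linker.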

Row | Sequence | protein stability index (Saccharomyces cerevisiae [1]) | protein stability index (Saccharomyces cerevisiae [2]; [3]) | protein stability index (Saccharomyces cerevisiae [2]; [4]) | protein stability index (Saccharomyces cerevisiae [2]; [5]) | protein stability index (Saccharomyces cerevisiae [2]; [6]) | protein stability index (Saccharomyces cerevisiae [2]; [7]) | protein stability index (Saccharomyces cerevisiae [2]; [8]) | protein stability index (Saccharomyces cerevisiae [2]; [9])
1 | CPYSNAFALCVF | 0.272 ± 0.034 | 0.153 ± 0.023 | 0.237 ± 0.022 | 0.22 ± 0.026 | 0.316 ± 0.0064 | 0.183 ± 0.0056 | 0.192 ± 0.019 | 0.253 ± 0.0037
2 | CREFLQSMLFYC | 0.373 ± 0.1 | 0.688 ± 0.043 | 0.744 ± 0.017 | 0.645 ± 0.044 | 0.751 ± 0.018 | 0.241 ± 0.016 | 0.281 ± 0.021 | 0.56 ± 0.02
3 | CSAVYNLHLLYS | 0.519 ± 0.076 | 0.696 ± 0.022 | 0.745 ± 0.012 | 0.626 ± 0.013 | 0.741 ± 0.011 | 0.469 ± 0.04 | 0.48 ± 0.022 | 0.6452 ± 0.0029
4 | CSFPTFRSLLLL | 0.3 ± 0.078 | 0.532 ± 0.018 | 0.647 ± 0.014 | 0.502 ± 0.018 | 0.671 ± 0.014 | 0.218 ± 0.0036 | 0.23 ± 0.021 | 0.438 ± 0.058
5 | CSPSCNIVRLVS | 0.294 ± 0.022 | 0.527 ± 0.016 | 0.723 ± 0.025 | 0.632 ± 0.02 | 0.712 ± 0.008 | 0.11 ± 0.018 | 0.114 ± 0.017 | 0.198 ± 0.059
6 | CTYSLSVLFVFF | 0.382 ± 0.024 | 0.396 ± 0.014 | 0.51 ± 0.067 | 0.3 ± 0.03 | 0.51 ± 0.056 | 0.252 ± 0.012 | 0.307 ± 0.035 | 0.4462 ± 0.0024
7 | CVFFCVLVCFLS | 0.369 ± 0.036 | 0.342 ± 0.0056 | 0.382 ± 0.023 | 0.302 ± 0.048 | 0.439 ± 0.006 | 0.317 ± 0.0066 | 0.3 ± 0.027 | 0.377 ± 0.0062
8 | CVLSWSLFVVVW | 0.044 ± 0.026 | 0.0234 ± 0.0015 | 0.028 ± 0.0018 | 0.0273 ± 0.0091 | 0.0441 ± 0.011 | 0.0209 ± 0.0017 | 0.0168 ± 0.0058 | 0.0346 ± 0.015
9 | CVVFLWCGGCWV | 0.503 ± 0.076 | 0.475 ± 0.013 | 0.584 ± 0.0059 | 0.346 ± 0.044 | 0.725 ± 0.085 | 0.344 ± 0.023 | 0.331 ± 0.03 | 0.734 ± 0.041
10 | CVVLCLFCWCML | 0.347 ± 0.048 | 0.358 ± 0.004 | 0.4266 ± 0.0042 | 0.314 ± 0.019 | 0.451 ± 0.007 | 0.32968 ± 0.00016 | 0.305 ± 0.021 | 0.425 ± 0.0082
11 | CYCSIGCLIIFS | 0.378 ± 0.074 | 0.2261 ± 0.0021 | 0.374 ± 0.023 | 0.238 ± 0.033 | 0.446 ± 0.0093 | 0.206 ± 0.0053 | 0.22 ± 0.023 | 0.4089 ± 0.003
12 | DALHPCIIYLTC | 0.341 ± 0.013 | 0.594 ± 0.049 | 0.565 ± 0.015 | 0.328 ± 0.035 | 0.609 ± 0.00096 | 0.217 ± 0.0055 | 0.254 ± 0.022 | 0.466 ± 0.013
13 | DECQLCNRDWRG | 0.7185 ± 0.0063 | 0.689 ± 0.069 | 0.739 ± 0.013 | 0.634 ± 0.015 | 0.726 ± 0.019 | 0.644 ± 0.032 | 0.657 ± 0.042 | 0.733 ± 0.018
14 | DKKPMKKILLCI | 0.151 ± 0.029 | 0.451 ± 0.0075 | 0.565 ± 0.068 | 0.494 ± 0.025 | 0.6477 ± 0.0033 | 0.0933 ± 0.02 | 0.0973 ± 0.0084 | 0.104 ± 0.0016
15 | DRLRSGLSLLLA | 0.4925 ± 0.0035 | 0.64 ± 0.014 | 0.6817 ± 0.0049 | 0.556 ± 0.018 | 0.669 ± 0.0078 | 0.365 ± 0.015 | 0.411 ± 0.02 | 0.583 ± 0.0065
16 | DRQMRCVHIHYL | 0.412 ± 0.021 | 0.647 ± 0.041 | 0.715 ± 0.028 | 0.646 ± 0.029 | 0.697 ± 0.011 | 0.275 ± 0.016 | 0.301 ± 0.015 | 0.532 ± 0.0088
17 | DRYSFYGYVVVL | 0.261 ± 0.0095 | 0.587 ± 0.021 | 0.632 ± 0.05 | 0.512 ± 0.042 | 0.66198 ± 4.4e-05 | 0.1728 ± 0.0011 | 0.186 ± 0.02 | 0.291 ± 0.041
